Our source for the expression_or_secretion values is PMC6743029.

This data set in a line: Western blot, Huh7.5.1 lysates, 16 h. As to conditions: glycan lost; control: untreated.

B1: SR-BI (scavenger receptor class B, type I): tunicamycin (protein)
parent chain: MGCSAKARWAAGALGVAGLLCAVLGAVMIVMVPSLIKQQVLKNVRIDPSSLSFNMWKEIPIPFYLSVYFFDVMNPSEILKGEKPQVRERGPYVYREFRHKSNITFNNNDTVSFLEYRTFQFQPSKSHGSESDYIVMPNILVLGAAVMMENKPMTLKLIMTLAFTTLGERAFMNRTVGEIMWGYKDPLVNLINKYFPGMFPFKDKFGLFAELNNSDSGLFTVFTGVQNISRIHLVDKWNGLSKVDFWHSDQCNMINGTSGQMWPPFMTPESSLEFYSPEACRSMKLMYKESGVFEGIPTYRFVAPKTLFANGSIYPPNEGFCPCLESGIQNVSTCRFSAPLFLSHPHFLNADPVLAEAVTGLHPNQEAHSLFLDIHPVTGIPMNCSVKLQLSLYMKSVAGIGQTGKIEPVVLPLLWFAESGAMEGETLHTFYTQLVLMPKVMHYAQYVLLALGCVLLLVPVICQIRSQVGAGQRAARADSHSLACWGKGASDRTLWPTAAWSPPPAAVLRLCRSGSGHCWGLRSTLASFACRVATTLPVLEGLGPSLGGGTGS
B1: the expression_or_secretion result is on record as “decreases”.
